# The RNAGym collection of RNA variant scans (doi:10.1073/pnas.2313332121)
# B1: TPR t1 (parent)
# chain: GACCAAUCUGCCCUCAGAGCUCGAGAACAUCUUCGGAUGCAGAGGAGGCAGGCUUCGGUGGCGCGAUAGCGCCAACGUCCUCAACCUCCAAUGCAUCCCACCACAUGAUGAUGCCUGAAGAGCCUUGGUUUUUUG
# Variants of: B1
# Assay: polymerase ribozyme fitness, log enrichment relative to wild type (log ratio); higher = more active; in vitro selection for triplet polymerase activity
# In short: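 Fitness is a logarithmic measure of how a genotype enriched relative to the wild type, with replicate averages weighted by inverse variance. The logarithm uses base 2, and enrichment came from Illumina sequencing of input and output libraries. Those libraries were PCR-built, transcribed mutants of each subunit of a heterodimeric triplet polymerase ribozyme, passed through one triplicate in vitro selection round that included frozen incubation at −7 °C, gel excision of extended constructs and streptavidin-bead capture. Genotypes were kept only if they had ≥10 input reads and ≥1 read per output.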
row,Variant,polymerase ribozyme fitness (log ratio)
1,C28U G45A C49G C72U G122A,-4.63
2,C28U G45A C70U C124U,-2.79
3,C28U G47U C97U C101U A103G G117C,-7.85
4,C28U G48A C53G C89U,-3.42
5,C28U G52C C56G,-3.11
6,C28U G60A C72G G110C C115G G120U,-7.22
7,C28U G60C A118G,-2.75
8,C28U G61A C64U A121C,-4.25
9,C28U G63C U78C U92G C99G A103U G110A,-4.52
10,C28U G63U G77A C94A U112C,-6.92
11,C28U G71A G77A C114A,-6.98
12,C28U G71C C124U,-2.51
13,C28U G93A,-1.92
14,C28U G93A C101U,-3.39
15,C28U G120A,-1.19
16,C28U U55A G71C,-2.75
17,C28U U55C G71A,-3.34
18,C28U U59C G61A C123U,-6.95
19,C28U U87A,-2.17
20,C28U U133G,-1.83
21,A29C A37C C53A G110U,-5.11

row,Variant,polymerase ribozyme fitness (log ratio)
1,A29C A37C C94U G120C,-4.25
2,A29C A37G G47U C72U C101U G110U,-6.59
3,A29C A50U C104A C114G,-8.27
4,A29C C56G C82A U87C C89A A108G C124A,-7.12
5,A29C C70U,-2.29
6,A29C G36U G69C G77A C97U A105U U106A,-5.4
7,A29C G52C C114U,-4.25
8,A29C G61U A90G U116G,-5.84
9,A29C G69U C99U,-3.95
10,A29C G71A C88G C123A U131C,-4.27
11,A29C G71C A95U C124U,-4.83
12,A29C U54C,-1.78
13,A29C U112A,-2.33
14,A29G A37C,-2.19
15,A29G A37U G61U,-1.98
16,A29G A41C A119U U133G,-2.94
17,A29G A46G,-1.09
18,A29G A50G C99G A105G C124A,-7.1
19,A29G A50U C73A,-2.36
20,A29G A91G G113A,-2.3
21,A29G A105U,-4.23

row,Variant,polymerase ribozyme fitness (log ratio)
1,A29G A111C,-0.114
2,A29G A118U,-0.684
3,A29G C40A C99G A111G,-7.69
4,A29G C49G C85G,-2.46
5,A29G C53A A91G C98A A111G,-7
6,A29G C53A C70G G110C,-5.69
7,A29G C56G,-1.53
8,A29G C56U C101G,-6.01
9,A29G C72A,-1.27
10,A29G C72G C80G A105C C123G,-7.14
11,A29G C73A,-1.67
12,A29G C76A G120U,-1.97
13,A29G C76U G77C,-2.58
14,A29G C86A U112A C123G,0.207
15,A29G C104A,-2.84
16,A29G C124A,0.584
17,A29G C124U,1.18
18,A29G G35C C98G,-3.4
19,A29G G35C G45A A100G U112C U116C,-7.03
20,A29G G36A G69A G71U C104U,-6.16
21,A29G G39U C72G,-3.09

row,Variant,polymerase ribozyme fitness (log ratio)
1,A29G G42C,-2.66
2,A29G G45C U106A,-1.67
3,A29G G60A C86U,-2.06
4,A29G G63A C88A,-2.37
5,A29G G69U,-0.507
6,A29G G71A U92C U129C,-4.75
7,A29G U32C G42U G47C,-4.18
8,A29G U32C U106A,-2.24
9,A29G U38G A43U A90C G113U U125C,-3.96
10,A29G U38G C73G C82U A100G C115G,-7.25
11,A29G U55G G58A C72G U131C U133G,-2.75
12,A29G U87C G113U A121C,-3.46
13,A29G U116G,-2.77
14,A29U A43U,-3.3
15,A29U A46C G117C,-4.13
16,A29U A50U U78A G93C,-4.11
17,A29U A111C C115G U125G U133A,-4.49
18,A29U C40U C62A A83C,-3.08
19,A29U C40U G44U C85U C89A C94G,-4.32
20,A29U C49U C64U U106A C115A U132C,-2.46
